Consider two molecules from patent US20250019439A1 (Adimab, published 2025).

Assay [1] addresses T1, ADI-48650.
T1 construct: pH-dependent anti-CD3 antibody made in CHO cells
The assay is described as follows: SPR Carterra avidity, CHO anti-ID; CHO-produced ADI-34134 (Table 10C). The procedure:
(§1) Kinetic analysis was conducted at 25° C. in an HBSTE running buffer system (Carterra Cat #3630) using a Carterra LSA (Carterra USA, Salt Lake City, UT). The sample compartment was maintained at 20° C. for the duration of each experiment.
(§2) For antibody capture experiments, a goat anti-human Fc antibody (Jackson ImmunoResearch) was covalently coupled to an HC30M sensor chip surface via standard amine coupling (1:1 EDC:NHS) and then blocked with ethanolamine (1.0 M, pH 8.5). Covalent coupling steps were performed in 25 mM MES buffer (Carterra, Cat #3625) plus 0.05% Tween20. The anti-CD3 antibodies (100 nM in running buffer) were flowed over discrete regions of interest on the chip surface for 5 minutes. […] Dissociation of the anti-idiotype antibodies was monitored for 300s. Several blank buffer samples were injected over the entire chip surface at the start of each non-regenerative kinetic cycle. The preceding blank buffer injection was used for blank surface subtraction. At the end of each non-regenerative kinetic cycle, all surfaces were regenerated via two 30s injections of 10 mM glycine, pH 1.7.
(§3) For data processing and fitting, sensorgrams were double reference subtracted with a baseline drift correction of 4 RU. Sensorgrams were y-aligned and baseline corrected, filtered and cropped to include only the association and dissociation steps. […]

The target in assay [2] is T2, ADI-74965.
T2 construct: pH-dependent anti-CD3 antibody made in CHO cells
The description is as above. The method, then:
as §1, §2, §3

In assay [3] the target is T3, ADI-26916 IgG.
T3 construct: anti-CD3 IgG
The assay is described as follows: SPR Carterra avidity, yeast anti-ID, *koff limit. Put shortly:
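At 25° C, anti-idiotype antibodies were analysed binding to anti-CD3 antibodies held on an anti-human Fc surface. Data were fitted to a 1:1 model.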

The target of assay [4] is T4, ADI-22523 Fab.
T4 construct: anti-CD3 Fab by papain digestion of the IgG
The assay is described as follows: BLI; tip ADI-34134 IgG, solution anti-CD3 Fab. The method, then: (§4) ForteBio affinity measurements were performed generally as previously described (Estep et al., MAbs. 2013 5(2):270-8). Briefly, ForteBio affinity measurements were performed by loading antibody IgG or Fabs on-line onto AHC sensors. Sensors were equilibrated off-line in assay buffer for 30 minutes and then monitored on-line for 60 seconds for baseline establishment. For avid binding measurement, sensors with loaded antibodies were exposed to IgG or Fab solutions for 3 minutes, afterwards they were transferred to assay buffer for 3 minutes for off-rate measurement. Kinetics data were fit using a 1:1 binding model in the data analysis software provided by ForteBio to obtain equilibrium dissociation constant (KD=koff/kₒₙ) values. In each column, tip-immobilized antibodies are listed first and solution antibodies second.
(§5) CTL-19613 is an IgG1 antibody prepared with anti-CD3 variable domains corresponding with those of clone 12C described in United States Publication Number US 2010/0183615 (e.g., see paragraphs 469-479 and FIG. 25 thereof), which also make up the CD3 binding domain of the bispecific antibody pasotuxizumab. […] In each column, tip-immobilized antibodies are listed first and solution antibodies second.
(In general: Biolayer interferometry detects binding as a change in optical thickness at a sensor tip.)

Assay [5] addresses T5, ADI-26941 Fab.
T5 construct: anti-CD3 Fab by papain digestion of the IgG
The assay is described as follows: BLI; tip ADI-34134 IgG, solution anti-CD3 Fab. The method, then: as §4, §5

For assay [6], the target named is T6, CTL-19613 Fab.
T6 construct: anti-CD3 Fab by papain digestion of the IgG1
The assay is described as follows: BLI; tip ADI-34134 IgG, solution anti-CD3 Fab. The procedure:
as §4, §5

The target of assay [7] is T7, ADI-26928 Fab.
T7 construct: anti-CD3 Fab by papain digestion of the IgG
The assay is described as follows: BLI; tip ADI-34134 IgG, solution anti-CD3 Fab. The procedure: as §4, §5

Assay [8] has as its target T8, ADI-26913 Fab.
T8 construct: anti-CD3 Fab by papain digestion of the IgG
The experiment in a line: BLI; tip ADI-34134 IgG, solution anti-CD3 Fab. The method, then: as §4, §5

In assay [9] the target is T9, ADI-26920 Fab.
T9 construct: anti-CD3 Fab by papain digestion of the IgG
The experiment in a line: BLI; tip ADI-34134 IgG, solution anti-CD3 Fab. The procedure:
as §4, §5

The target in assay [10] is T10, ADI-26916 Fab.
T10 construct: anti-CD3 Fab by papain digestion of the IgG
The assay is described as follows: BLI; tip ADI-34134 IgG, solution anti-CD3 Fab. The method, then:
as §4, §5

The target of assay [11] is T11, ADI-26927 Fab.
T11 construct: anti-CD3 Fab by papain digestion of the IgG
The assay is described as follows: BLI; tip ADI-34134 IgG, solution anti-CD3 Fab. The method, then: as §4, §5

In assay [12] the target is T12, ADI-26921 Fab.
T12 construct: anti-CD3 Fab by papain digestion of the IgG
The experiment in a line: BLI; tip ADI-34134 IgG, solution anti-CD3 Fab. The procedure: as §4, §5

The target of assay [13] is T13, ADI-26906 Fab.
T13 construct: anti-CD3 Fab by papain digestion of the IgG
The assay is described as follows: BLI; tip ADI-34134 IgG, solution anti-CD3 Fab. The method, then: as §4, §5

Assay [14] concerns the target T14, CTL-62240.
T14 construct: also called ONO-4685
The experiment in a line: SPR Carterra, CHO anti-ID. The method, then:
as §1, §2
(§6) In Tables 10A-10C, anti-CD3 antibodies are listed by ADI number or CTL number in the first column. […] CTL-62223 is mosunetuzumab, CTL-62227 is odronextamab, CTL-62228 is glofitamab, and CTL-62240 is ONO-4685. […] “W.B.” means weak binding under the conditions of this assay and thus a KD was unable to be assigned. “N.B.” means no binding under the conditions of this assay.

The target in assay [15] is CTL-19613 IgG. The experiment in a line: BLI; tip anti-CD3 IgG, solution ADI-34145 IgG. The procedure:
as §4, §5

The target in assay [16] is T15, ADI-26906 IgG.
T15 construct: anti-CD3 IgG
The experiment in a line: BLI; tip anti-CD3 IgG, solution ADI-34145 IgG. The procedure:
as §4, §5

Assay [17] deals with T16, ADI-22523 IgG.
T16 construct: anti-CD3 IgG
The experiment in a line: BLI; tip anti-CD3 IgG, solution ADI-34145 IgG. The method, then:
as §4, §5

Assay [18] deals with T3, ADI-26916 IgG. The assay is described as follows: BLI; tip anti-CD3 IgG, solution ADI-34145 IgG. The method, then:
as §4, §5

Assay [19] addresses T17, ADI-26920 IgG.
T17 construct: anti-CD3 IgG
The experiment in a line: BLI; tip anti-CD3 IgG, solution ADI-34145 IgG. The method, then: as §4, §5

Assay [20] addresses T18, CTL-19672 IgG.
T18 construct: IgG1 with the anti-CD3 variable domains of clone 38E4v1
The experiment in a line: BLI; tip anti-CD3 IgG, solution ADI-34145 IgG. The method, then:
as §4, §5

Assay [21] has as its target T19, ADI-26954 IgG.
T19 construct: anti-CD3 IgG
The assay is described as follows: BLI; tip anti-CD3 IgG, solution ADI-34145 IgG. The method, then: as §4, §5

Assay [22] addresses T20, ADI-26913 IgG.
T20 construct: anti-CD3 IgG
The experiment in a line: BLI; tip anti-CD3 IgG, solution ADI-34145 IgG. The method, then: as §4, §5

The target of assay [23] is T21, ADI-70326.
T21 construct: anti-CD3 antibody made in CHO cells, captured by anti-human Fc
The experiment in a line: SPR Carterra, CHO anti-ID. The method, then: as §1, §2, §6

T3 sequence (VH, as listed by the source, chain 1 of 2): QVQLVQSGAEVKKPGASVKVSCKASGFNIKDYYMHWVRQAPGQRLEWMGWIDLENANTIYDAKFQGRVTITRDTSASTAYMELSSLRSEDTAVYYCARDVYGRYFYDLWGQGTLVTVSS
T3 sequence (VL, as listed by the source, chain 2 of 2): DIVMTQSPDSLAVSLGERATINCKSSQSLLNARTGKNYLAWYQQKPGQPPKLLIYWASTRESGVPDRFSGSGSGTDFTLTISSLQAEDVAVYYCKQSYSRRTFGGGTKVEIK
T7 sequence (VH, as listed by the source limits assumed, chain 1 of 2): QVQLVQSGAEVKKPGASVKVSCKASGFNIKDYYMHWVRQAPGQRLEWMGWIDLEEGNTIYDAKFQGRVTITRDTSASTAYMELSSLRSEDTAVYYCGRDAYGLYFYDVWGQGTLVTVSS
T7 sequence (VL, as listed by the source limits assumed, chain 2 of 2): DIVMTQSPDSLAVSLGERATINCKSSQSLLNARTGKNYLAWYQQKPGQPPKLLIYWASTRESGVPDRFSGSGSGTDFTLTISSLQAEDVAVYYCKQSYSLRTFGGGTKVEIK
T11 sequence (VH, as listed by the source limits assumed, chain 1 of 2): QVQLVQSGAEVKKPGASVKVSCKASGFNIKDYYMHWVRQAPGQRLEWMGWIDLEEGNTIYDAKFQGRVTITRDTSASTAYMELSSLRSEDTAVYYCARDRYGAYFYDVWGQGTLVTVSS
T8 sequence (VH, as listed by the source limits assumed, chain 1 of 2): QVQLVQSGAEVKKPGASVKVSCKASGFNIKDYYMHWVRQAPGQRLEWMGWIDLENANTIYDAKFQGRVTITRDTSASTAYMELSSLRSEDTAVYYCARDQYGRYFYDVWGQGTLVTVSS
T4 sequence (VH, as listed by the source limits assumed, chain 1 of 2): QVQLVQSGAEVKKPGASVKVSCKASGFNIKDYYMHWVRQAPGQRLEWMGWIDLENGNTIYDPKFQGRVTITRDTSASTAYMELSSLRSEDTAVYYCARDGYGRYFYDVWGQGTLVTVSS
T4 sequence (VL, as listed by the source limits assumed, chain 2 of 2): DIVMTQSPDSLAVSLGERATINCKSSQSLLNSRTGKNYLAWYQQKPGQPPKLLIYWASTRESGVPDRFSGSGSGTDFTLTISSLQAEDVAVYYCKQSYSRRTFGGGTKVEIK
T21 sequence (VH, as listed by the source limits assumed, chain 1 of 2): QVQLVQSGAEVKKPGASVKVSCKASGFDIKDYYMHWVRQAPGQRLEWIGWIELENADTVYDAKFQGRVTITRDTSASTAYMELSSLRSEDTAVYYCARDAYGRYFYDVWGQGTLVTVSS
T21 sequence (VL, as listed by the source limits assumed, chain 2 of 2): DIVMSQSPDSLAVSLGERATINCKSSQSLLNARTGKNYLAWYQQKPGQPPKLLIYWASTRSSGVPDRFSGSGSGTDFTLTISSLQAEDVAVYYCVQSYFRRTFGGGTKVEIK
T13 sequence (VH, as listed by the source limits assumed, chain 1 of 2): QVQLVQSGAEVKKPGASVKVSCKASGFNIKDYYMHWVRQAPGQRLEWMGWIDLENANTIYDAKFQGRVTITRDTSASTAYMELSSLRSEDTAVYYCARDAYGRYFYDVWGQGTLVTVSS
T2 sequence (VH, as listed by the source, chain 1 of 2): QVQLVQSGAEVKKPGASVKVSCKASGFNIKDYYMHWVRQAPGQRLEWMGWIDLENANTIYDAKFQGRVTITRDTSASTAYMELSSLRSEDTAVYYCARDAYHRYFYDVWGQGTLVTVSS
T2 sequence (VL, as listed by the source, chain 2 of 2): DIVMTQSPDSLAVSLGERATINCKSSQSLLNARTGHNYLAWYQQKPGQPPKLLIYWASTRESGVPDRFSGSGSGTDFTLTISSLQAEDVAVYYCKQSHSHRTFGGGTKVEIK
T12 sequence (VH, as listed by the source limits assumed, chain 1 of 2): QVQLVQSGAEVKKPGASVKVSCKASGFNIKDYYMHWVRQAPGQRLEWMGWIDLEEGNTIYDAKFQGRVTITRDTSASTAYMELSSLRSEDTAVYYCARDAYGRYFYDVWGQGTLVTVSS
T1 sequence (VH, as listed by the source, chain 1 of 2): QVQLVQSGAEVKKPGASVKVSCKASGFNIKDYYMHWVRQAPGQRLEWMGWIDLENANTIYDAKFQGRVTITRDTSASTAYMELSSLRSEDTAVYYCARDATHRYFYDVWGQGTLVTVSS
T1 sequence (VL, as listed by the source, chain 2 of 2): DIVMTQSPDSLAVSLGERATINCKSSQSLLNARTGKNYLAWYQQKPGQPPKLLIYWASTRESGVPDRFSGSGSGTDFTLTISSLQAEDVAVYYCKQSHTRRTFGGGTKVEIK
T19 sequence (VH, as listed by the source limits assumed, chain 1 of 2): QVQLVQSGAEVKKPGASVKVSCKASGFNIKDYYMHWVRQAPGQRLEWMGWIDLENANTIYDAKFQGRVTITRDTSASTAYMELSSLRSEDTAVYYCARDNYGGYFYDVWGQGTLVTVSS
T19 sequence (VL, as listed by the source limits assumed, chain 2 of 2): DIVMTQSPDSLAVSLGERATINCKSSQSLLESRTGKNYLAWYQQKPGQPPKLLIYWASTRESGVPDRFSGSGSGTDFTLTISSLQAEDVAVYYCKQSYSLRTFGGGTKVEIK
T17 sequence (VH, as listed by the source limits assumed, chain 1 of 2): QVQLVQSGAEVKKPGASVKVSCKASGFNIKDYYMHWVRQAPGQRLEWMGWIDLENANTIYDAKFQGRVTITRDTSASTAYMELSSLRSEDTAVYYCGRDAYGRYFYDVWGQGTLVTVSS
T14 sequence (VH, as listed by the source, chain 1 of 2): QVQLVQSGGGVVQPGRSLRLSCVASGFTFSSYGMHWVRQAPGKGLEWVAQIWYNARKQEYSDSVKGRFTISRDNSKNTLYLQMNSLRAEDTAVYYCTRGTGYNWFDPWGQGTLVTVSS
T14 sequence (VL, as listed by the source, chain 2 of 2): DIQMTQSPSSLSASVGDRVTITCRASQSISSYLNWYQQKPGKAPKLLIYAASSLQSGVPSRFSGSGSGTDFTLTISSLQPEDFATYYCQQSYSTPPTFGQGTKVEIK
T5 sequence (VH, as listed by the source limits assumed, chain 1 of 2): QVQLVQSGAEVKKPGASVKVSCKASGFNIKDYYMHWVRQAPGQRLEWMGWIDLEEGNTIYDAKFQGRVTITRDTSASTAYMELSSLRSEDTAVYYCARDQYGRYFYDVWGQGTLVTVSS
T5 sequence (VL, as listed by the source limits assumed, chain 2 of 2): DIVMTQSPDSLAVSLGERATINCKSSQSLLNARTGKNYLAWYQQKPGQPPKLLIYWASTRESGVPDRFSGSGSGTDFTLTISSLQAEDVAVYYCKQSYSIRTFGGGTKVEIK
T18 sequence (VH, as listed by the source limits assumed, chain 1 of 2): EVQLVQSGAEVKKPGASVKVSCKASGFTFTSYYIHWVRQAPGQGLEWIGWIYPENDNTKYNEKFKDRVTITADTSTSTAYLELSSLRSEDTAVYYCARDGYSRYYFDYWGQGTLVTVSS
T18 sequence (VL, as listed by the source limits assumed, chain 2 of 2): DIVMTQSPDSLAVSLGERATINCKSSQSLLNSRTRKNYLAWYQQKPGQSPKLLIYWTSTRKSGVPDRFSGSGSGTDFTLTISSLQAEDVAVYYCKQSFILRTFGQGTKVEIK

B1: ADI-34134 IgG (antibody, V domains shown)
VH: QVQLVQSGAEVKKPGSSVKVSCKASGGTFSSYAISWVRQAPGQGLEWMGGIIPIFGTANYAQKFQGRVTITADESTSTAYMELSSLRSEDTAVYYCARGAPNYYGSGGYDDGWFDPWGQGTLVTVSS
VL: EIVLTQSPGTLSLSPGERATLSCRASQSVSSDYLAWYQQKPGQAPRLLIYGASSRATGIPDRFSGSGSGTDFTLTISRLEPEDFAVYYCQQFGRVPTFGGGTKVEIK
For B1, the binding result in assay [1] was “binds”; in assay [2], “binds”; in assay [6] it was “no binding”; in assay [14] it was “no binding (tested: up to 200 nM)”. For the same molecule, the Kd was 6.3 nM in [3]; 4.46 nM in assay [4]; 112 nM in [5]; 182 nM in assay [7]; 86.5 nM in assay [8]; 29.8 nM in assay [9]. For the same molecule, the Kd in assay [10] was determined as 110 nM; in [11] it was 25.6 nM; in assay [12], 92.7 nM; in assay [13], 36 nM.

B2: ADI-34145 IgG (antibody, V domains shown)
VH: EVQLLESGGGLVQPGGSLRLSCAASGFTFSSYAMSWVRQAPGKGLEWVSTISGSGGSTYYADSVKGRFTISRDNSKNTLYLQMNSLRAEDTAVYYCARLGGRRGSGSSYYYYYGMDVWGQGTTVTVSS
VL: not shown
notes: anti-ID IgG
Regarding B2, the binding result in [15] is “no binding”; in assay [20], “no binding”; in [23], “no binding (tested: up to 200 nM)”. The Kd in assay [16] stood at 8.39 nM; in [17], 2.6 nM; in assay [18], 7.75 nM; in assay [19], 3.5 nM; in [21] it was 1.82 nM; in assay [22] it was 1.03 nM.
